T1: purified recombinant CD23 (human, UniProt P06734 150-321, limits assumed)
T1 construct: also called CD23 antigen; immobilised CD23
T1 sequence (looked up): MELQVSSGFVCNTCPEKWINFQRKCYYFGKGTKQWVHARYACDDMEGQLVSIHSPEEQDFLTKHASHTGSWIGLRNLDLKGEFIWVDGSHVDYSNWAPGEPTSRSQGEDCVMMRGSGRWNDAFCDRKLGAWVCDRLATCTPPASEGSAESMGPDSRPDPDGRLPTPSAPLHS

T2: soluble CD23 (sCD23) (human, UniProt P06734 150-321, limits assumed)
T2 sequence (looked up): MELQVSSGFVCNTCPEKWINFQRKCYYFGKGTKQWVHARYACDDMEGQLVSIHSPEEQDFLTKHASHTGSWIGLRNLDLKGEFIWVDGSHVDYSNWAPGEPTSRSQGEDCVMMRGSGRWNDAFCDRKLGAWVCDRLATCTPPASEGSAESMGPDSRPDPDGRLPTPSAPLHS


Assays:
[1] = molecular target: T1, purified recombinant CD23; test: Biacore SPR, recombinant CD23 immobilised on CM5; affinity (association) constant
Protocol: (§1) The association rate, dissociation rate and the dissociation rate constant for the binding of humanised anti-CD23 to the CD23 antigen was evaluated on the Biacore Biosensor. Briefly, purified recombinant CD23 was immobilised onto a CM5 sensor surface. Carboxyl groups on the dextran surface were activated by 1-ethyl-3(3-dimethylaminopropyl) carbidimide (EDCO/N-hydroxysuccimimide (NHS). Following activation, recombinant CD23 was passed over the surface to initiate immobilisation. Ethanolamine was then added to quench residual active groups. Humanised anti-CD23 diluted in HBS buffer was passed over the sensor surface. Binding of anti-CD23 to immobilised CD23 was monitored in real time for estimation of the association rate (M^-1 seq^-1). Dissociation of the CD23 and the anti-CD23 complex in buffer was also monitored for estimation of the dissociation rate (sec^-1). The dissociation constant (nM) was calculated from the dissociation and association rate. […] The affinity constant was determined to be approximately 9 ×10^10 Ka mol^-1.

[2] = molecular target: T1, purified recombinant CD23; test: Biacore SPR, recombinant CD23 immobilised on CM5, antibody in solution; upper end of the range over 6 batches
Protocol: as §1

[3] = molecular target: T1, purified recombinant CD23; test: Biacore SPR, recombinant CD23 immobilised on CM5, antibody in solution; lower end of the range over 6 batches
Protocol: as §1

[4] = molecular target: T2, soluble CD23 (sCD23); test: ELISA, sCD23 coated on plate, antibody concentration for half-maximal binding (log-logit fit)
Protocol: (§2) The chimaeric antibody bound sCD23 in an ELISA assay. For the ELISA assay to determine sCD23 binding, EIA/RIA plates (Costar) were coated with 100 µl/well of 2 µg/ml sCD23 in 35 mM NaHCO_3, 15 mM Na_2CO_3, pH 9.3 overnight at 4° C. Plates were washed three times with 150 mM NaCl, 50 mM Trizma base, 0.1% (v/v) Tween-20, pH 7.4 (TBS/Tween), blocked for 1–2 hours at 22° C. with 100 µl/well of 2% bovine serum albumin in TBS/Tween, and washed three times with TBS/Tween.
(§3) The concentration of chimeric and humanised anti-CD23 antibody required for half-maximal binding to sCD23 was assayed using the sCD23 ELISA already described. Absorbance at 405 nm was plotted versus a range of concentrations of antibody to generate a sigmoidal curve with a "goodness of fit" or correlation coefficient of 1. The absorbance was read using a Molecular Devices plate reader (Menlo Park, Calif., USA) and Softmax (Molecular Devices Corp) software to calculate best fit by a log-logit algorithm then display the curve, equation parameters and correlation coefficient. A discussion of curve fitting appears in "Data Analysis and Quality Control of Assays: A Practical Primer", by R P Channing Rogers in Practical Immuno Assay, editor Wilfrid R Butt; published by Marcel Dekker, Inc., New York 1984. […] The value for x in ng/ml was calculated for the following equation: […]

[5] = molecular target: T2, soluble CD23 (sCD23); test: ELISA, plate coated with sCD23, OD against antibody concentration
Protocol: as §2, §3

[6] = molecular target: T1, purified recombinant CD23; test: Biacore SPR, recombinant CD23 immobilised on CM5, calculated from the rates; lower end of the range over 6 batches
Protocol: as §1

| Ka [1] [M⁻¹] | koff [2] [s⁻¹] | koff [3] [s⁻¹] | kon [3] [M⁻¹ s⁻¹] | EC50 [4] [µg/mL] | EC50 (read off the curve) [5] [µg/mL] | Kd [6] [nM] | Binder |
| --- | --- | --- | --- | --- | --- | --- | --- |
| ~9e+10 | 2e-05 | 1e-05 | 1.5e+06 to 1.85e+06 | 0.015 | ~0.03 | 0.008 to 0.012 | humanised anti-CD23 antibody (IgG1 with mutations 248 Leu to Ala and 250 Gly to Ala, human kappa) (antibody, V domains shown, The light chain constant region is human kappa; also called humanised CD23 IgG1m) VH: EVQLVESGGGLVKPGGSLRLSCAASGFTFSGYWMSWVRQAPGKGLEWVAEIRLKSDNYATHYAESVKGKFTISRDDSKSRLYLQMNSLKTEDTAVYYCTDFIDWGQGTLVTVSS VL: DIVMTQSPLSLPVTPGEPASISCRSSKSLLYKDGKTYLNWYLQKPGQSPQLLIYLMSTRASGVPDRFSGSGSGTDFTLKISRVEAEDVGVYYCQQLVEYPFTFGQGTKVEIKR |
| – | – | – | – | 0.0163 | ~0.06 | – | chimaeric anti-CD23 antibody (murine C11 variable regions, human gamma 1 and human kappa constant regions) (antibody, human IgG1, V domains shown, The VH is fused to the human IgG1 (gamma 1) constant region of Reichmann et al 1988 and the VL to the human kappa constant region of Reichmann et al 1988; It was transiently expressed in COS cells and tested as supernatant; The variable regions were amplified with signal-peptide primers, so the entries may include a leader, and no cleavage site is stated; also called chimeric CD23; chimaeric CD23 …) VH: EVKLEESGGGLVQPGGSMKLSCVASGFTFSGYWMSWVRQSPEKGLEWVAEIRLKSDNYATHYAESVKGKFTISRDDSKSRLYLQMNSLRAEDSGVYYCTDFIDWGQGTL VL: DIVITQDELSNPVTSGESVSISCRSSKSLLYKDGKTYLNWFLQRPGQSPQLLMYLMSTRASGVSDRFSGSGSGTDFTLEISRVKAEDVGVYYCQQLVEYPFTFGSGTKLEIKR |

Source: patent US7008623 (GlaxoSmithKline, dated 2006)
